Assays:
Experiment in all cases: flow cytometry on cells; K562/HLA-F*01:0x cells stripped of bound peptides with citrate phosphate buffer, with or without 200 µM HBB peptide (4 h, 37 °C, serum-free medium); Fc-block 20 min 4 °C; KIR3DS1-Fc 25 µg/mL, 40 min, 4 °C; detected with goat anti-human IgG Fc PE; n = 3
[1] = target: HLA-F*01:01 on K562 cells loaded with the HBB peptide … (human | human (endogenous in K562))
[2] = target: HLA-F*01:03 on K562 cells loaded with the HBB peptide … (human | human (endogenous in K562))
[3] = target: HLA-F*01:04 on K562 cells loaded with the HBB peptide … (human | human (endogenous in K562))

percent decrease of KIR3DS1 binding against the same cells without HBB peptide [1]: 36.2%
percent decrease of KIR3DS1 binding against the same cells without HBB peptide [2]: 27.9%
percent decrease of KIR3DS1 binding against the same cells without HBB peptide [3]: 16.5%
Substance: recombinant KIR3DS1-Fc chimeric protein (from UniProt Q14943 22-340) (Fc fusion)

From publication PMC7672607
